Data published in US20230203146A1 (Boehringer Ingelheim, published 2023).
Where two headings read alike, the source gives them in different places.

T1: N-terminally FLAG-tagged mouse Ang2 (HEK293T conditioned medium) (mouse, UniProt O35608 19-496)
T1 construct: may be a nucleotide entry; also called mAng2; FLAG-mAng2
T1 sequence: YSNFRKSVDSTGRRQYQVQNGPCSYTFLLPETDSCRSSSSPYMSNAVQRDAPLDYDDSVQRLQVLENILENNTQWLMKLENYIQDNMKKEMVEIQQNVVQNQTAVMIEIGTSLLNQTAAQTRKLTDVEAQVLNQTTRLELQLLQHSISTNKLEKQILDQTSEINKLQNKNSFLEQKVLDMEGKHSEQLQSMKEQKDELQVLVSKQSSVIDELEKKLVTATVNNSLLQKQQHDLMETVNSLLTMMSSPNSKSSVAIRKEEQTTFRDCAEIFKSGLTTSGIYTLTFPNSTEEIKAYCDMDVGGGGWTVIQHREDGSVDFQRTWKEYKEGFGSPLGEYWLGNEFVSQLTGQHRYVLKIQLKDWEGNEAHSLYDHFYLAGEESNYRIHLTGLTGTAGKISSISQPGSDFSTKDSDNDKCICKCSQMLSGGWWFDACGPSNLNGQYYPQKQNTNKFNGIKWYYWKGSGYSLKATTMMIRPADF

T2: FLAG-tagged mouse Ang2 (mouse, UniProt O35608 19-496)
T2 construct: N-terminally FLAG-tagged, conditioned medium of HEK293T cells; also called mAng2; FLAG-mAng2
T2 sequence: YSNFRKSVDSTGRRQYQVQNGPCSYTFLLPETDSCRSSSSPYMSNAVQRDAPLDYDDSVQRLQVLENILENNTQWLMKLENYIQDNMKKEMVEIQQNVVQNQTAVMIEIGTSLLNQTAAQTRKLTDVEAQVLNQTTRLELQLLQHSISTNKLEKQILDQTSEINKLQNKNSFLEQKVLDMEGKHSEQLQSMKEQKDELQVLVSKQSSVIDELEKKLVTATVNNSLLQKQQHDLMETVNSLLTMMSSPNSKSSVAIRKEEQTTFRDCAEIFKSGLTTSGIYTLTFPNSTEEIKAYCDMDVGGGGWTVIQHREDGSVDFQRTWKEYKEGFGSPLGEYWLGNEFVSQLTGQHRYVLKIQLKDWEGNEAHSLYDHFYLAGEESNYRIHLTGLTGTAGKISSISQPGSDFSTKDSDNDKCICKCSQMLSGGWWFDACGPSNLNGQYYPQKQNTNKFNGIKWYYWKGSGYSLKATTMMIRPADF

T3: FLAG-tagged cynomolgus Ang2 (cynomolgus, UniProt O15123 19-496 (human entry), limits assumed)
T3 construct: N-terminally FLAG-tagged, conditioned medium of HEK293T cells; also called cAng2; FLAG-cAng2
T3 chain: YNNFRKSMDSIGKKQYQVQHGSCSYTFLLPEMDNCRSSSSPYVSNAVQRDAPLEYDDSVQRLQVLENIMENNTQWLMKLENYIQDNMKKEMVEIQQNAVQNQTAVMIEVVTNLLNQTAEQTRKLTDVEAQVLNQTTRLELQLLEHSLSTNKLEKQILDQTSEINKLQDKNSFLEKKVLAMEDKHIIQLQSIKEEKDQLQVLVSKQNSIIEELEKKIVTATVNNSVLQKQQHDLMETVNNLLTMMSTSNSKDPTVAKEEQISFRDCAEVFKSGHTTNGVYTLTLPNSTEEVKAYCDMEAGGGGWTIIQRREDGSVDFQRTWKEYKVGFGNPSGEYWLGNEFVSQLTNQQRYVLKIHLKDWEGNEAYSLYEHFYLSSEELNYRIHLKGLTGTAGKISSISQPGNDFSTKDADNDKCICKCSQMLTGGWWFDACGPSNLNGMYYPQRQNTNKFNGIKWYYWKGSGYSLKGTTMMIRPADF


Experiments:
[1] = target: T1, N-terminally FLAG-tagged mouse Ang2 …; experiment: competition ELISA, FLAG-mAng2 on coated mTie2-Fc
Experimental: (§1) In brief, 2 μg/mL of recombinant mouse Tie2-Fc or cyno Tie2-Fc is coated overnight at 4° C. in a 96-well MaxiSorp plate (Nunc, Wiesbaden, Germany). Coated wells are blocked with a 1% casein solution.

[2] = target: T1, N-terminally FLAG-tagged mouse Ang2 …; experiment: competition ELISA, periplasmic extract, FLAG-mAng2 on mTie2/Fc
Experimental: In brief, human Tie2/Fc chimera (R&D Systems, Minneapolis, Minn., USA) is biotinylated using N-hydroxysulfosuccinimide ester of biotin (Thermo Fisher Scientific, Rockford, Ill., USA). […] To this mixture, the Acceptor beads and 0.3 nM biotinylated human Tie2/Fc chimeras are added and further incubated for 2 hours at room temperature. Finally, streptavidin conjugated Donor beads (Perkin Elmer, Waltham, Mass., US) are added and the mixture is incubated for an additional 2 hours at room temperature. Assay buffer is PBS+0.03% Tween-20+0.1% BSA. Fluorescence is measured using the Envision Multilabel Plate reader (Perkin Elmer, Waltham, Mass., USA) using an excitation wavelength of 680 nm and an emission wavelength of 520 nm. […] In brief, human or mouse Tie2/Fc chimera (R&D Systems, Minneapolis, Minn., USA) are immobilized at 2 μg/mL overnight at 4° C. in a 96-well MaxiSorp plate (Nunc, Wiesbaden, Germany). Wells are blocked with a 1% casein solution. […] This mixture is added to the Tie2/Fc coated well and incubated for 2 hours at room temperature. Residual binding of Ang is detected using HRP-conjugated anti-FLAG M2 antibody (Sigma, St Louis, Mo., USA).

[3] = target: T2, FLAG-tagged mouse Ang2; experiment: competition ELISA: FLAG-mAng2 binding to coated mTie2-Fc
Experimental: as §1

[4] = target: T3, FLAG-tagged cynomolgus Ang2; experiment: competition ELISA: FLAG-cAng2 binding to coated cTie2-Fc
Experimental: as §1

[5] = target: T3, FLAG-tagged cynomolgus Ang2; experiment: as above
Experimental: as §1

[6] = target: T1, N-terminally FLAG-tagged mouse Ang2 …; experiment: competition ELISA, FLAG-mAng2 on coated mTie2-Fc; remark: listed apart in the source
Experimental: as §1

Binder	% inh [2] [%]	IC50 [3] [nM]	IC50 [4] [nM]	other results
VHH 22C07 (VHH, also called 022C07; not shown: C-terminal c-myc tag and His6 tag) VHH: EVQLVESGGGLVQAGGSLRLSCAASGFTFDDYAIGWFRQAPGKEREGVSCISSSDGSTYYADSVKGRFTISSDNAKNTVYLQMNSLKPEDTAVYYCAADFIISSKRLCLDLFGSRGQGTQVTVSS	82	–	–	IC50 [1]: 13.6 nM
VHH 25F01 (VHH, also called 025F01; not shown: C-terminal c-myc tag and His6 tag) VHH: EVQLVESGGGLVQAGGSLRLSCAVSGLPFDDYVIGWFRQAPGKEREGVSCISSSDGSTYYADSVKGRFTISSDNAKNTVYLQMNSLKPEDTAAYYCAAGGPRINIATMTCSHDEYEYDYWGQGTQVTVSS	42	–	–	IC50 [1]: 13.3 nM
VHH 15H04 (VHH, also called 015H04; not shown: C-terminal c-myc tag and His6 tag) VHH: EVQLVESGGGLVQAGGSLGLSCAASERTLPSYVMGWFRQAPGKELEFVAGISWSSGRTYYTDSVKGRFTISRDAAENTWYLQMNSLKPEDTAVYYCASNSVSEPTLHTWQYEASYDYWGQGTQVTVSS	38	–	–	IC50 [1]: 125 nM
VHH 8A11 (VHH, also called 008A11; not shown: C-terminal c-myc tag and His6 tag) VHH: EVQLVESGGGLVQAGGSLRLSCAASGRTFSSYAMGWFRQAPGKELEFVTAVSWSGGSTYYADSVKGRFTISRDSAKNTVYLQMNSLKPEDTAVYYCAAQSTIVEVTTLEAYDYWGQGTQVTVSS	13	–	–	IC50 [1]: 442 nM
VHH 00048 (VHH, not shown: small tags and cut ends) VHH: EVQLVESGGGLVQAGGSLRLSCAASGFTLDDYAIGWFRQAPGKEREGVSSIRDSDGSTYYADSVKGRFTISSDNDKNTVYLQMNSLKPEDTAVYYCAAVPAGRLRFGEQWYPLYEYDAWGQGTLVTVSS	–	2.1	1	–
VHH 00937 (VHH, not shown: small tags and cut ends, Cycle 3 variant of 28D10 on the 00908 backbone) VHH: EVQLVESGGGLVQPGGSLRLSCAVSGITLDDYAIGWFRQAPGKEREGVSAIRESGGSTYYADSVKGRFTISSDNSKNTVYLQMNSLRPEDTAVYYCAAVPAGRLRYGEQWYPIYEYDAWGQGTLVTVSS	–	–	–	IC50 [5]: 0.085 nM
VHH 00936 (VHH, not shown: small tags and cut ends, Cycle 3 variant of 28D10 on the 00908 backbone) VHH: EVQLVESGGGLVQPGGSLRLSCAVSGITLDDYAIGWFRQAPGKEREGVSAIRDNGGSTYYADSVKGRFTISSDNSKNTVYLQMNSLRPEDTAVYYCAAVPAGRLRYGEQWYPIYEYDAWGQGTLVTVSS	–	–	–	IC50 [5]: 0.06 nM
VHH 00934 (VHH, not shown: small tags and cut ends, Cycle 3 variant of 28D10 on the 00908 backbone) VHH: EVQLVESGGGLVQPGGSLRLSCAASGITLDDYAIGWFRQAPGKEREGVSAIRESGGSTYYADSVKGRFTISSDNSKNTVYLQMNSLRPEDTAVYYCAAVPAGRLRYGEQWYPIYEYDAWGQGTLVTVSS	–	–	–	IC50 [5]: 0.071 nM
VHH 00054 (VHH, not shown: small tags and cut ends) VHH: EVQLVESGGGLVQPGGSLRLSCAASGFTLDDYAIGWFRQAPGKEREGVSSIRDNDGSTYYADSVKGRFTISRDNSKNTVYLQMNSLRPEDTAVYYCAAVPAGRLRFGEQWYPLYEYDAWGQGTLVTVSS	–	22.9	11.7	–
VHH 00052 (VHH, not shown: small tags and cut ends) VHH: EVQLVESGGGLVQPGGSLRLSCAASGFTLDDYAIGWFRQAPGKEREGVSSIRDNDGSTYYADSVKGRFTISSDNDKNTVYLQMNSLRPEDTAVYYCAAVPAGRLRFGEQWYPLYEYDAWGQGTLVTVSS	–	2.1	0.8	–
VHH 00055 (VHH, not shown: small tags and cut ends) VHH: EVQLVESGGGLVQAGGSLRLSCAASGFTLDDYAIGWFRQAPGKEREGVSSIRDNGGSTYYADSVKGRFTISSDNDKNTVYLQMNSLKPEDTAVYYCAAVPAGRLRFGEQWYPLYEYDAWGQGTLVTVSS	–	4.6	2	–
VHH 00053 (VHH, not shown: small tags and cut ends) VHH: EVQLVESGGGLVQPGGSLRLSCAASGFTLDDYAIGWFRQAPGKEREGVSSIRDNDGSTYYADSVKGRFTISRDNDKNTVYLQMNSLRPEDTAVYYCAAVPAGRLRFGEQWYPLYEYDAWGQGTLVTVSS	–	36.7	13.8	–
VHH 22G11 (VHH, Tested as periplasmic extract; also called 022G11; not shown: C-terminal c-myc tag and His6 tag) VHH: EVQLVESGGGLVQAGGSLRLSCAVSGFTFDDYAIGWFRQAPGKEREGVSCISRSDGSPYYADSVKGRFTISSDNAKGTVYLQMSSLKPEDTAVYYCAASWSGAYYSGTYYCDRLYEYDAWGQGTQVTVSS	98	–	–	–
VHH 32H10 (VHH, also called 032H10; not shown: C-terminal c-myc tag and His6 tag) VHH: EVQLVESGGGLVQAGGSLRLSCAASGFDFEDYDMGWFRQAPGKEREGVSYISSSDGSTYYTDSVKGRFTISSDNAKNTVYLQMNSLIPEDTAVYYCAARPWTRRVYGSSWLARSLDEYEYDYWGQGTQVTVSS	58	–	–	IC50 [6]: 13 nM
